The record followed here is publication PMC12089923.

The assay deals with AffiTagged cyclicPfAMA1-DI (folded protein 45) (Plasmodium falciparum). In words: SPR; AffiTagged cyclicPfAMA1-DI held on a nickel-NTA chip (BI-4500, Biosensing Instrument Inc.), PfRON2_(2021-2059) in solution; kinetic fit, average of three repeats.

The Kd is the concentration at which binding is half-saturated. A low value points to tighter binding. As usually defined, the koff is a measure of how fast the partners let go of each other. The low end stands for slow dissociation, the high end for fast dissociation. A word on the kon: it is the rate constant with which the complex forms. Low readings indicate slower complex formation, high ones faster complex formation.

“PfRON2_(2021-2059) peptide (rhoptry neck protein 2 ectodomain peptide) (from UniProt Q8IKV6 2021-2059)” had a Kd of 500 nM, a koff of 0.0708 s⁻¹ and a kon of 142000 M⁻¹ s⁻¹.
